Changes are numbered by the printed parent chain.
B1: anti-trkC agonist monoclonal antibody 2345 (antibody, human IgG2, V domains shown)
VH: QVQLQESGPGLVKPSQTLSLTCTVSGGSISSGGYYWSWIRQHPEKGLEWIGYIFYSGRTYYNPSLKSRVTISVDTSKNQFSLKLNSVTAADTAVYYCARERIAAAGADYYYNGLDVWGQGTTVTVSS
VL: EIVLTQSPGTLSLSPGERATLSCRASQSVSSNYLTWYQQKPGQAPRLLIYGASSRATGIPDRFSGSGSGTDFTLTISRLEPEDFAVYYCQQYGRSPPITFGQGTRLEIKR
notes: human IgG2 from Xenomouse hybridoma; heavy chain subgroup II, light chain kappa III
B2: anti-trkC agonist monoclonal antibody 2349 (antibody, human IgG4, V domains shown)
VH: B1 VH with G33Y, E44G, F54Y, R58S, V69L, N85S, A107T, D115A
VL: B1 VL with E1G, L21F, V29G, N32T, T35A
notes: human IgG4 from Xenomouse hybridoma; heavy chain subgroup II, light chain kappa III
B3: anti-trkC agonist monoclonal antibody 6.4.1 (antibody, human IgG2, V domains shown)
VH: QVQLQESGPGLVRPSETLSLTCTVSGGSISTYYWNWIRQPAGKGLEWIGRIYTSGSTNYNPSLKSRVTMSVDTSKNQFSLKLSSVTAADTAVYYCARDGGYSNPFDWGQGTLVTVSS
VL: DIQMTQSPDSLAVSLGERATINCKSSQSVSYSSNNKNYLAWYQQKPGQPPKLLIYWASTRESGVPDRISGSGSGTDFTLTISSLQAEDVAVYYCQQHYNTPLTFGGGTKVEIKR
notes: human IgG2 from Xenomouse hybridoma; heavy chain subgroup II, light chain kappa I; also called Mab 6.4.1
B4: anti-trkC agonist monoclonal antibody 2253 (antibody, mouse IgG1, V domains shown)
VH: QVQLQQSGAELMQPGASVKISCKSTGYTFSNFWIEWVKQRPGHGLEWIGEILPGSDNTNYNEKFKGKATFTADTSSNTAYMQLSSLTSEDSAVYYCARKNRNYYGNYVVWGAGTTLTVSS
VL: QIVLTQSPAIMSASPGEKVTITCSASSSVSYMYWFQQKPGTSPKLWIYSTSNLASGVPARFSGSGSGTSYSLTISRMEAEDAATYYCQQRSSYPLTFGAGTKLELKR
notes: murine IgG1; heavy chain subgroup IIA, light chain kappa IV
B5: anti-trkC agonist monoclonal antibody 2256 (antibody, mouse IgG1, V domains shown)
VH: QVQLQQPGAELVKPGASVKLSCKASGYTFTSYWMHWVKQRPGQGLEWIGEIYPSNGRTNYNEKFKSKATLTVDKSSSTAYMQLSSLTSEDSAVYYCARKYYYGNSYRSWYFDVWGAGTTLTVSS
VL: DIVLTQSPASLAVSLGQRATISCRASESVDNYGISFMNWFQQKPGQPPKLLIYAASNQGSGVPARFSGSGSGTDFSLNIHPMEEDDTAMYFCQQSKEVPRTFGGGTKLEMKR
notes: murine IgG1; heavy chain subgroup IIA, light chain kappa III
B6: neurotrophin-3 (NT-3) (ligand, UniProt P20783 139-257, looked up)
chain: YAEHKSHRGEYSVCDSESLWVTDKSSAIDIRGHQVTVLGEIKTGNSPVKQYFYETRCKEARPVKNGCRGIDDKHWNSQCKTSQTYVRALTSENNKLVGWRWIRIDTSCVCALSRKIGRT

What follows are binders tested against T1, gD-tagged trkC (human trkC-gD) (human, UniProt Q16288 32-429) (assay: competition ELISA on gD-trkC; competitor: unlabelled 2345 (50 µg/ml); biotin-MAb 1 µg/ml; SA-HRP;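 note: negative control competitors were unlabelled human IgG2 and mouse IgG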).
T1 construct: purified antigen of the ELISAs and SPR; also called gD-trkC
T1 sequence (Q16288 32-429 S70N): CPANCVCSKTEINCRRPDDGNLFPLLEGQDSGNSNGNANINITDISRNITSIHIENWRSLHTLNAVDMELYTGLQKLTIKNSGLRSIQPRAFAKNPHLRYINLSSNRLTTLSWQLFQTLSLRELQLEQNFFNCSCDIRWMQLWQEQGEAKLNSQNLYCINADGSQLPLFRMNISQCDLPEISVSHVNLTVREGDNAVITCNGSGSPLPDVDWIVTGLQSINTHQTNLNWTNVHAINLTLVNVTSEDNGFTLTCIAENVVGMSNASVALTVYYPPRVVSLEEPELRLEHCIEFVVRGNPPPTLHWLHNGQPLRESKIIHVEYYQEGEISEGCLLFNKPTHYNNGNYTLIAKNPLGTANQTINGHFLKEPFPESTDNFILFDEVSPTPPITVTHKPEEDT
Experimental: (§1) A competition ELISA was used to get preliminary information about various groups to which these antibodies belong depending on the epitope(s) on trkC they recognize. In this assay, trkC-gD (1 μg/ml) was used as a capture antigen to coat microliter plate. A specific biotinylated anti-trkC monoclonal antibody (1 μg/ml) was added to the coated plate either alone or in presence of another anti-trkC monoclonal antibody that was unlabeled and used in excess (50 μg/ml) as compared to the labeled antibody. If biotinylated antibody and unlabeled antibody both recognize the same or overlapping epitope, they will compete for binding to the immobilized trkC, resulting in decreased binding of the labeled antibody. If they recognize different and non-overlapping epitopes, there will be no competition between them, and the binding of the labeled antibody to the immobilized trkC will not be affected. Unlabeled human IgG2 and mouse IgG were used as negative control.

Compared with B1, B2 is lower in “signal of the biotin-MAb in the competition ELISA” value (“signal of the biotin-MAb” below): 0.04 for the first, 0.01 for the second.

Compared with B3, B4 is higher in “signal of the biotin-MAb” value: 0.12 for the first, 1.4 for the second.

What follows are binders tested against T1, gD-tagged trkC (human trkC-gD) (assay: competition ELISA on gD-trkC; competitor: unlabelled 2.5.1 (50 µg/ml); biotin-MAb 1 µg/ml; SA-HRP;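 note: negative control competitors were unlabelled human IgG2 and mouse IgG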).
Experimental: as §1

First: B1
Second: B4
The “signal of the biotin-MAb” value of the first is lower: 0.17 for the first, 1.4 for the second.

The binders below were run against T2, trkC mutant L286H (human, UniProt Q16288 32-429, limits assumed) (assay: binding to trkC point mutants (NB = no binding observed)).
T2 construct: point mutant in domain 5
T2 sequence (Q16288 32-429 S70N/L317H limits assumed): as the sequence (Q16288 32-429 S70N) above, with L286H counted along it

B3: no binding.

The binders below were run against T3, trkC mutant N335A (human, UniProt Q16288 32-429, limits assumed) in the same assay as above.
T3 construct: point mutant in domain 5
T3 sequence (Q16288 32-429 S70N/N366A limits assumed): as the sequence (Q16288 32-429 S70N) above, with N335A counted along it

B1: no binding.

Each binder was assayed against T4, trkC mutant L284E (human, UniProt Q16288 32-429, limits assumed) in the same assay as above.
T4 construct: point mutant in domain 5
T4 sequence (Q16288 32-429 S70N/L315E limits assumed): as the sequence (Q16288 32-429 S70N) above, with L284E counted along it

B1: no binding.
B2: no binding.
B3: no binding.

What follows are binders tested against T5, trkC mutant R285A (human, UniProt Q16288 32-429, limits assumed) in the same assay as above.
T5 construct: point mutant in domain 5
T5 sequence (Q16288 32-429 S70N/R316A limits assumed): as the sequence (Q16288 32-429 S70N) above, with R285A counted along it

B5: no binding.

What follows are binders tested against T6, trkC mutant E287K (human, UniProt Q16288 32-429, limits assumed) in the same assay as above.
T6 construct: point mutant in domain 5
T6 sequence (Q16288 32-429 S70N/E318K limits assumed): as the sequence (Q16288 32-429 S70N) above, with E287K counted along it

B1: no binding.
B2: no binding.
B3: no binding.

The binders below were run against T1, gD-tagged trkC (human trkC-gD) (assay: SPR (BIAcore), gD-trkC over immobilized IgG).

First: B5
Second: B3
The Kd of the first is 11-fold higher: 300 nM for the first, 28 nM for the second.

B4 gave a Kd of 51 nM.

Each binder was assayed against T1, gD-tagged trkC (human trkC-gD) (assay: SPR (BIAcore), IgG over immobilized gD-trkC (400-600 RU)).

First: B1
Second: B2
The Kd of the first is 1.9-fold lower: 12 nM for the first, 23 nM for the second.

Going from B5 to B3, the Kd falls from 62 nM to 12 nM (5.2-fold). The second binds more tightly here.

Binder B4 has a Kd of 42 nM.

The binders below were run against T1, gD-tagged trkC (human trkC-gD) (assay: competition ELISA on gD-trkC; competitor: unlabelled 6.4.1 (50 µg/ml); biotin-MAb 1 µg/ml; SA-HRP;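 note: negative control competitors were unlabelled human IgG2 and mouse IgG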).
Experimental: as §1

First: B2
Second: B5
The “signal of the biotin-MAb” value of the first is lower: 0.03 for the first, 0.12 for the second.

For B3, the “signal of the biotin-MAb” value was 0.07.

Each binder was assayed against T1, gD-tagged trkC (human trkC-gD) (assay: competition ELISA on gD-trkC; competitor: unlabelled 2253 (50 µg/ml); biotin-MAb 1 µg/ml; SA-HRP;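 note: negative control competitors were unlabelled human IgG2 and mouse IgG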).
Experimental: as §1

Compared with B1, B2 is lower in “signal of the biotin-MAb” value: 0.07 for the first, 0.03 for the second.

Compared with B5, B3 is higher in “signal of the biotin-MAb” value: 0.02 for the first, 0.03 for the second.

B4 was tested, and the “signal of the biotin-MAb” value was 0.

These binders were tested against T7, trkC fused with a gD flag epitope, on stably transfected CHO cells (KIRA) (assay: cell-based or functional assay).

First: B1
Second: B2
The “EC50 (read off the curve), trkC tyrosine phosphorylation, KIRA” value (from here on “EC50 (read off the curve)”) of the first is 1.5-fold lower: roughly 2 nM for the first, roughly 3 nM for the second.

First: B6
Second: B3
The “EC50 (read off the curve)” value of the first is higher: 5 to 9 nM for the first, roughly 3 nM for the second.

The binders below were run against T1, gD-tagged trkC (human trkC-gD) (assay: competition ELISA on gD-trkC; competitor: unlabelled 2250 (50 µg/ml); biotin-MAb 1 µg/ml; SA-HRP;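 note: negative control competitors were unlabelled human IgG2 and mouse IgG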).
Experimental: as §1

Going from B1 to B2, the “signal of the biotin-MAb” value falls from 0.04 to 0.02.

First: B5
Second: B3
The “signal of the biotin-MAb” value of the first is lower: 0.01 for the first, 0.1 for the second.

With B4 the “signal of the biotin-MAb” value was 1.24.

What follows are binders tested against T1, gD-tagged trkC (human trkC-gD) (assay: SPR (BIAcore), summary table).

Compared with B1, B2 is 1.9-fold higher in Kd: 12.1 nM for the first, 23 nM for the second. The first binds more tightly here.

First: B5
Second: B3
The Kd of the first is 5.2-fold higher: 62 nM for the first, 12 nM for the second. The second binds more tightly here.

For B4, the Kd was 42 nM.

Each binder was assayed against T1, gD-tagged trkC (human trkC-gD) (assay: competition ELISA on gD-trkC; competitor: unlabelled 2256 (50 µg/ml); biotin-MAb 1 µg/ml; SA-HRP;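 note: negative control competitors were unlabelled human IgG2 and mouse IgG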).
Experimental: as §1

B2 and B5 are the same in “signal of the biotin-MAb” value: 0.02 for the first, 0.02 for the second.

Going from B3 to B4, the “signal of the biotin-MAb” value rises from 0.1 to 1.34.

The binders below were run against T1, gD-tagged trkC (human trkC-gD) (assay: competition ELISA on gD-trkC; competitor: unlabelled 2349 (50 µg/ml); biotin-MAb 1 µg/ml; SA-HRP;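 note: negative control competitors were unlabelled human IgG2 and mouse IgG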).
Experimental: as §1

First: B1
Second: B2
The “signal of the biotin-MAb” value of the first is higher: 0.02 for the first, 0 for the second.

First: B5
Second: B3
The “signal of the biotin-MAb” value of the first is lower: 0.07 for the first, 0.1 for the second.

These binders were tested against wildtype trkC (reference of Table 5) (human, UniProt Q16288 32-429, limits assumed) (assay: binding titration on trkC point mutants; wildtype reference row).
wildtype trkC (reference of Table 5), sequence (Q16288 32-429 S70N limits assumed): as the sequence (Q16288 32-429 S70N) above

B1 and B2 are the same in “ratio EC50 mutant/EC50 wildtype trkC” value: 1 ratio for the first, 1 ratio for the second.

B5 and B3 are the same in “ratio EC50 mutant/EC50 wildtype trkC” value: 1 ratio for the first, 1 ratio for the second.

B4 was tested, and the “ratio EC50 mutant/EC50 wildtype trkC” value was 1 ratio.

What follows are binders tested against T1, gD-tagged trkC (human trkC-gD) (assay: competition ELISA on gD-trkC; competitor: unlabelled 6.1.2 (50 µg/ml); biotin-MAb 1 µg/ml; SA-HRP;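 note: negative control competitors were unlabelled human IgG2 and mouse IgG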).
Experimental: as §1

First: B1
Second: B2
The “signal of the biotin-MAb” value of the first is higher: 0.11 for the first, 0.04 for the second.

With B5 the “signal of the biotin-MAb” value was 0.13.

Each binder was assayed against T2, trkC mutant L286H (assay: binding titration on trkC point mutants).

Going from B1 to B2, the “ratio EC50 mutant/EC50 wildtype trkC” value rises from 0.5 ratio to 0.6 ratio.

Going from B5 to B4, the “ratio EC50 mutant/EC50 wildtype trkC” value falls from 0.6 ratio to 0.4 ratio.

The binders below were run against T3, trkC mutant N335A (assay: binding titration on trkC point mutants).

Going from B2 to B5, the “ratio EC50 mutant/EC50 wildtype trkC” value falls from 1.5 ratio to 0.5 ratio.

First: B3
Second: B4
The “ratio EC50 mutant/EC50 wildtype trkC” value of the first is lower: 0.3 ratio for the first, 0.5 ratio for the second.

What follows are binders tested against T4, trkC mutant L284E (assay: binding titration on trkC point mutants).

Going from B5 to B4, the “ratio EC50 mutant/EC50 wildtype trkC” value falls from 1.1 ratio to 0.7 ratio.

The binders below were run against T5, trkC mutant R285A (assay: binding titration on trkC point mutants).

First: B1
Second: B2
The “ratio EC50 mutant/EC50 wildtype trkC” value of the first is higher: 1 ratio for the first, 0.9 ratio for the second.

First: B3
Second: B4
The “ratio EC50 mutant/EC50 wildtype trkC” value of the first is lower: 0.8 ratio for the first, 0.9 ratio for the second.

These binders were tested against T6, trkC mutant E287K (assay: binding titration on trkC point mutants).

B5 and B4 are the same in “ratio EC50 mutant/EC50 wildtype trkC” value: 0.7 ratio for the first, 0.7 ratio for the second.

The binders below were run against T8, trkC mutant H318A (human, UniProt Q16288 32-429, limits assumed) (assay: binding titration on trkC point mutants).
T8 construct: point mutant in domain 5
T8 sequence (Q16288 32-429 S70N/H349A limits assumed): as the sequence (Q16288 32-429 S70N) above, with H318A counted along it

Compared with B1, B2 is lower in “ratio EC50 mutant/EC50 wildtype trkC” value: 1 ratio for the first, 0.7 ratio for the second.

Going from B5 to B3, the “ratio EC50 mutant/EC50 wildtype trkC” value falls from 0.8 ratio to 0.7 ratio.

With B4 the “ratio EC50 mutant/EC50 wildtype trkC” value was 0.8 ratio.

Biological target: T7, trkC fused with a gD flag epitope, on …
Assay: cell-based or functional assay
Remark: another data set of the same source

Compared with B6, B5 is lower in “EC50 (read off the curve)” value: 5 to 9 nM for the first, roughly 4 nM for the second.

Reference: patent US20070036794A1 (Genentech, published 2007)
